According to the array DNA melting data of Ke et al.:

Experiment: melting temperature; melt of duplexes
Settings: sodium 0.0675 M; strand 1 µM
“CGACGTGCTATATGTGCTG+CAGCACATTTTGCACGTCG ((((((((.(.((((((((+)))))))).).))))))))” showed a Tm of 50.9 °C.
Work on “CGACGTGCCCAATGTGCTG+CAGCACATGCGGCACGTCG (((((((((..((((((((+))))))))..)))))))))” yielded a Tm of 54.3 °C.
Work on “CGACGTGCCCGATGTGCTG+CAGCACATCACGCACGTCG ((((((((..(((((((((+)))))))))..))))))))” yielded a Tm of 52.2 °C.
In the case of “CGACGTGCGAGATGTGCTG+CAGCACATATTGCACGTCG ((((((((.(.((((((((+)))))))).).))))))))”, the Tm was 54.4 °C.
For “CGACGTGCGACATGTGCTG+CAGCACATATTGCACGTCG ((((((((.(.((((((((+)))))))).).))))))))”, the Tm was 51.5 °C.
With “CGACGTGCGACATGTGCTG+CAGCACATCAGGCACGTCG ((((((((...((((((((+))))))))...))))))))” the Tm was 49 °C.
“CGACGTGCGGCATGTGCTG+CAGCACATCGCGCACGTCG (((((((((..((((((((+))))))))..)))))))))” gave a Tm of 55.2 °C.
“CGACGTGCGAGATGTGCTG+CAGCACATTCTGCACGTCG ((((((((...((((((((+))))))))...))))))))” gave a Tm of 52.9 °C.
“CGACGTGCGTGATGTGCTG+CAGCACATTACGCACGTCG ((((((((((.((((((((+)))))))).))))))))))” showed a Tm of 60.4 °C.
With “CGACGTGCCCGATGTGCTG+CAGCACATAGCGCACGTCG ((((((((.(.((((((((+)))))))).).))))))))” the Tm was 50.8 °C.
In the case of “CGACGTGCCCAATGTGCTG+CAGCACATTTAGCACGTCG ((((((((..(((((((((+)))))))))..))))))))”, the Tm was 50.4 °C.
For “CGACGTGCCGCATGTGCTG+CAGCACATCATGCACGTCG ((((((((...((((((((+))))))))...))))))))”, the Tm was 48.6 °C.
“CGACGTGCGCAATGTGCTG+CAGCACATGCGGCACGTCG ((((((((...((((((((+))))))))...))))))))” gave a Tm of 56.3 °C.
For “CGACGTGCCATATGTGCTG+CAGCACATCTGGCACGTCG ((((((((((.((((((((+)))))))).))))))))))”, the Tm was 57.1 °C.
In the case of “CGACGTGCGTAATGTGCTG+CAGCACATTTTGCACGTCG ((((((((..(((((((((+)))))))))..))))))))”, the Tm was 54.4 °C.
In the case of “CGACGTGCGCGATGTGCTG+CAGCACATGTAGCACGTCG ((((((((...((((((((+))))))))...))))))))”, the Tm was 52.6 °C.
In the case of “CGACGTGCAGCATGTGCTG+CAGCACATGACGCACGTCG ((((((((..(((((((((+)))))))))..))))))))”, the Tm was 52 °C.
“CGACGTGCTCCATGTGCTG+CAGCACATCTTGCACGTCG ((((((((...((((((((+))))))))...))))))))” gave a Tm of 47.2 °C.
In the case of “CGACGTGCGTTATGTGCTG+CAGCACATCGCGCACGTCG (((((((((..((((((((+))))))))..)))))))))”, the Tm was 54.6 °C.
For “CGACGTGCCGCATGTGCTG+CAGCACATAGTGCACGTCG ((((((((...((((((((+))))))))...))))))))”, the Tm was 46.8 °C.
“CGACGTGCCGGATGTGCTG+CAGCACATGTTGCACGTCG ((((((((...((((((((+))))))))...))))))))” gave a Tm of 48.1 °C.
In the case of “CGACGTGCCCGATGTGCTG+CAGCACATCCCGCACGTCG ((((((((..(((((((((+)))))))))..))))))))”, the Tm was 51.9 °C.
In the case of “CGACGTGCCAAATGTGCTG+CAGCACATTTTGCACGTCG ((((((((.((((((((((+)))))))))).))))))))”, the Tm was 55.1 °C.
In the case of “CGACGTGCACGATGTGCTG+CAGCACATTTTGCACGTCG (((((((((..((((((((+))))))))..)))))))))”, the Tm was 48.5 °C.
In the case of “CGACGTGCTTCATGTGCTG+CAGCACATCATGCACGTCG ((((((((.(.((((((((+)))))))).).))))))))”, the Tm was 49.2 °C.
Substance “CGACGTGCCGCATGTGCTG+CAGCACATGGTGCACGTCG ((((((((..(((((((((+)))))))))..))))))))” has a Tm of 52 °C.
In the case of “CGACGTGCAACATGTGCTG+CAGCACATAGTGCACGTCG (((((((((..((((((((+))))))))..)))))))))”, the Tm was 48.9 °C.
In the case of “CGACGTGCGCTATGTGCTG+CAGCACATATCGCACGTCG (((((((((.(((((((((+))))))))).)))))))))”, the Tm was 56 °C.
In the case of “CGACGTGCGTTATGTGCTG+CAGCACATTATGCACGTCG ((((((((.(.((((((((+)))))))).).))))))))”, the Tm was 53 °C.
Work on “CGACGTGCCACATGTGCTG+CAGCACATAGAGCACGTCG ((((((((...((((((((+))))))))...))))))))” yielded a Tm of 49.4 °C.
For “CGACGTGCAATATGTGCTG+CAGCACATTTCGCACGTCG ((((((((.(.((((((((+)))))))).).))))))))”, the Tm was 50.1 °C.
Work on “CGACGTGCTACATGTGCTG+CAGCACATGGAGCACGTCG (((((((((.(((((((((+))))))))).)))))))))” yielded a Tm of 61.7 °C.
Work on “CGACGTGCCGGATGTGCTG+CAGCACATGCTGCACGTCG ((((((((.(.((((((((+)))))))).).))))))))” yielded a Tm of 51.3 °C.
For “CGACGTGCTGTATGTGCTG+CAGCACATTGCGCACGTCG ((((((((...((((((((+))))))))...))))))))”, the Tm was 47.9 °C.
With “CGACGTGCGTCATGTGCTG+CAGCACATTGCGCACGTCG (((((((((..((((((((+))))))))..)))))))))” the Tm was 54.7 °C.
“CGACGTGCTCGATGTGCTG+CAGCACATGGTGCACGTCG ((((((((.(.((((((((+)))))))).).))))))))” showed a Tm of 49.7 °C.
For “CGACGTGCGTTATGTGCTG+CAGCACATGCGGCACGTCG ((((((((...((((((((+))))))))...))))))))”, the Tm was 49.6 °C.
For “CGACGTGCCACATGTGCTG+CAGCACATAGCGCACGTCG ((((((((...((((((((+))))))))...))))))))”, the Tm was 48.5 °C.
Substance “CGACGTGCGTGATGTGCTG+CAGCACATTCGGCACGTCG ((((((((...((((((((+))))))))...))))))))” has a Tm of 51.5 °C.
“CGACGTGCATCATGTGCTG+CAGCACATCGGGCACGTCG ((((((((...((((((((+))))))))...))))))))” gave a Tm of 47.9 °C.
Substance “CGACGTGCTGCATGTGCTG+CAGCACATGAGGCACGTCG ((((((((..(((((((((+)))))))))..))))))))” has a Tm of 56.8 °C.
In the case of “CGACGTGCTCAATGTGCTG+CAGCACATATGGCACGTCG ((((((((...((((((((+))))))))...))))))))”, the Tm was 50.5 °C.
Substance “CGACGTGCCGCATGTGCTG+CAGCACATCCGGCACGTCG ((((((((((.((((((((+)))))))).))))))))))” has a Tm of 58.2 °C.
Substance “CGACGTGCCACATGTGCTG+CAGCACATTTTGCACGTCG ((((((((.(.((((((((+)))))))).).))))))))” has a Tm of 48 °C.
With “CGACGTGCCACATGTGCTG+CAGCACATTCAGCACGTCG ((((((((...((((((((+))))))))...))))))))” the Tm was 48.9 °C.
In the case of “CGACGTGCAGCATGTGCTG+CAGCACATAGGGCACGTCG ((((((((...((((((((+))))))))...))))))))”, the Tm was 46.4 °C.
Substance “CGACGTGCGCAATGTGCTG+CAGCACATGACGCACGTCG (((((((((..((((((((+))))))))..)))))))))” has a Tm of 54.4 °C.
“CGACGTGCGTCATGTGCTG+CAGCACATTCGGCACGTCG ((((((((...((((((((+))))))))...))))))))” showed a Tm of 48.7 °C.
“CGACGTGCGAGATGTGCTG+CAGCACATCCGGCACGTCG ((((((((..(((((((((+)))))))))..))))))))” gave a Tm of 55.7 °C.
Substance “CGACGTGCAAAATGTGCTG+CAGCACATTAAGCACGTCG ((((((((..(((((((((+)))))))))..))))))))” has a Tm of 52.4 °C.
In the case of “CGACGTGCCCGATGTGCTG+CAGCACATATTGCACGTCG ((((((((...((((((((+))))))))...))))))))”, the Tm was 47.7 °C.
Substance “CGACGTGCTATATGTGCTG+CAGCACATGACGCACGTCG ((((((((...((((((((+))))))))...))))))))” has a Tm of 47.6 °C.
“CGACGTGCGTCATGTGCTG+CAGCACATTTAGCACGTCG ((((((((...((((((((+))))))))...))))))))” showed a Tm of 51.6 °C.
For “CGACGTGCCTAATGTGCTG+CAGCACATCACGCACGTCG ((((((((.(.((((((((+)))))))).).))))))))”, the Tm was 46.3 °C.
For “CGACGTGCGGTATGTGCTG+CAGCACATATAGCACGTCG ((((((((..(((((((((+)))))))))..))))))))”, the Tm was 56.4 °C.
Work on “CGACGTGCTCCATGTGCTG+CAGCACATCCGGCACGTCG ((((((((...((((((((+))))))))...))))))))” yielded a Tm of 47.7 °C.
“CGACGTGCAACATGTGCTG+CAGCACATGGTGCACGTCG (((((((((.(((((((((+))))))))).)))))))))” showed a Tm of 60 °C.
For “CGACGTGCACCATGTGCTG+CAGCACATCCGGCACGTCG ((((((((...((((((((+))))))))...))))))))”, the Tm was 42.7 °C.
Work on “CGACGTGCAACATGTGCTG+CAGCACATCCAGCACGTCG ((((((((...((((((((+))))))))...))))))))” yielded a Tm of 47.1 °C.
For “CGACGTGCTCGATGTGCTG+CAGCACATGAAGCACGTCG (((((((((..((((((((+))))))))..)))))))))”, the Tm was 52.8 °C.
In the case of “CGACGTGCATTATGTGCTG+CAGCACATAAGGCACGTCG ((((((((.((((((((((+)))))))))).))))))))”, the Tm was 56.7 °C.
For “CGACGTGCGGAATGTGCTG+CAGCACATTCAGCACGTCG ((((((((.((((((((((+)))))))))).))))))))”, the Tm was 60.2 °C.
With “CGACGTGCTCAATGTGCTG+CAGCACATCAAGCACGTCG (((((((((..((((((((+))))))))..)))))))))” the Tm was 51.6 °C.
Work on “CGACGTGCATTATGTGCTG+CAGCACATATGGCACGTCG ((((((((..(((((((((+)))))))))..))))))))” yielded a Tm of 51.8 °C.
“CGACGTGCACAATGTGCTG+CAGCACATAAGGCACGTCG ((((((((...((((((((+))))))))...))))))))” showed a Tm of 46.8 °C.
For “CGACGTGCTGTATGTGCTG+CAGCACATAATGCACGTCG ((((((((..(((((((((+)))))))))..))))))))”, the Tm was 51.5 °C.
“CGACGTGCACTATGTGCTG+CAGCACATACTGCACGTCG (((((((((.(((((((((+))))))))).)))))))))” showed a Tm of 48.8 °C.
In the case of “CGACGTGCGTAATGTGCTG+CAGCACATCTTGCACGTCG ((((((((...((((((((+))))))))...))))))))”, the Tm was 49.7 °C.
Substance “CGACGTGCAGCATGTGCTG+CAGCACATGCGGCACGTCG ((((((((.((((((((((+)))))))))).))))))))” has a Tm of 61.6 °C.
“CGACGTGCGAGATGTGCTG+CAGCACATCTCGCACGTCG (((((((((((((((((((+)))))))))))))))))))” gave a Tm of 66.5 °C.
“CGACGTGCACTATGTGCTG+CAGCACATTTCGCACGTCG ((((((((...((((((((+))))))))...))))))))” gave a Tm of 43.1 °C.
Work on “CGACGTGCGCTATGTGCTG+CAGCACATCAAGCACGTCG ((((((((...((((((((+))))))))...))))))))” yielded a Tm of 51.4 °C.
